According to publication PMC6212719:
Numbering of substitutions follows the chain as printed.

B1: sigAP-TGTG (dsDNA)
DNA 1: CACTGAAACTTGCCCGCTCGGGCTGTACTCGTGCGCAGTTGTGTTACAATGGTCAGCGGCGGCCGCCCGACCGATAGCGCGCGAGTATTCACGCTGATATCAACGC
DNA 2: GCGTTGATATCAGCGTGAATACTCGCGCGCTATCGGTCGGGCGGCCGCCGCTGACCATTGTAACACAACTGCGCACGAGTACAGCCCGAGCGGGCAAGTTTCAGTG
B2: sigAP-TG1 (dsDNA)
DNA 1: B1 DNA 1 with T40A, G41A
DNA 2: B1 DNA 2 with C66T, A67T

Columns and labels:
[1] = molecular target: T1, MtbRNAP core (alpha2 beta beta' omega);sigma B (Mycobacterium …, UniProt P9WGZ1;P9WGY9;P9WGY7;P9WGY5;P9WGI5 1-347;1-1178;1-1316;1-110;1-323, |); assay: EMSA
[2] = molecular target: MtbRNAP core (alpha2 beta beta' omega);sigma B;RbpA (Mycobacterium …, UniProt P9WGZ1;P9WGY9;P9WGY7;P9WGY5;P9WGI5;P9WHJ5 1-347;1-1178;1-1316;1-110;1-323;1-111, ||); assay: EMSA
[3] = molecular target: MtbRNAP core (alpha2 beta beta' omega);sigma B;RbpA R79A (Mycobacterium …, UniProt P9WGZ1;P9WGY9;P9WGY7;P9WGY5;P9WGI5;P9WHJ5 1-347;1-1178;1-1316;1-110;1-323;1-111, ||R79A); assay: KMnO4 footprinting
[4] = molecular target: MtbRNAP core (alpha2 beta beta' omega);sigma B;RbpA KKAA (Mycobacterium …, UniProt P9WGZ1;P9WGY9;P9WGY7;P9WGY5;P9WGI5;P9WHJ5 1-347;1-1178;1-1316;1-110;1-323;1-111, ||K73A;K74A); assay: EMSA
[5] = molecular target: T1, MtbRNAP core (alpha2 beta beta' …); assay: EMSA; remark: listed apart in the source

Binder | Kd [1] | Kd [2] | binding result [3] | binding result [4] | binding result [5]
B1 | 117 nM | 42 nM | binds | binds | –
B2 | – | – | – | – | binds
